Assay results as given in the supplement of paper PMC7877785.
± gives the uncertainty stated by the source.

Experiment: self-splicing fitness, log relative to wild type (ln ratio); higher = more splicing; Tetrahymena group I intron in knt gene, E. coli kanamycin selection, DiMSum; sequences stand for … in CUCUCU…GGAGGGAAAAGUUAUCAGGCAUGCACCUGGUAGCUAGUCUUUAAACCAAUAGAUUGCAUCGGUUUAAAAGGCAAGACCGUCAAAUUGCGGGAAAGGGGUCAACAGCCGUUCAGUACCAAGUCUCAGGGGAAACUUUGAGAUGGCCUUGCAAAGGGUAUGGUAAUAAGCUGACGGACAUGGUCCUAACCACGCAGCCAAGUCCUAAGUCAACAGAUCUUCUGUUGAUAUGGAUGCAGUUCACAGACUAAAUGUCGGUCGGGGAAGAUGUAUUCUUCUCAUAAGAUAUAGUCGGACCUCUCCUUAAUGGGAGCUAGCGGAUGAAGUGAUGCAACACUGGAGCCGCUGGGAACUAAUUUGUAUGCGAAAGUAUAUUGAUUAGUUUUGGAGUACUCGUGGUCG
Procedure, shortened: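 Six replicate transformations of E. coli BL21(DE3) with a pET-22b(+) library were grown overnight at 37°C or 30°C. The library randomised all eight P1ex-region intron nucleotides, the intron lying in the knt kanamycin-resistance gene, and plates were LB agar with or without 25 μg/mL kanamycin plus 100 μg/mL carbenicillin, 50 μM IPTG and 0.2% rhamnose. Pooled colonies were amplicon-sequenced on an Illumina HiSeq 2500, and fitness is the DiMSum error-weighted combination of wild-type-normalised replicate fold changes, kanamycin versus none.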

Row | Sequence | self-splicing fitness (ln) (30 °C) | self-splicing fitness (ln) (37 °C)
1 | AUGUAGCAAUAUUACGAACA | -0.529 ± 0.14 | 0.476 ± 0.15
2 | AUAGAGCAAUAUUACGCAAG | -2.97 ± 0.2 | -1.24 ± 0.22
3 | ACCCAGCAAUAUUACGGGUU | -4.18 ± 0.12 | -2.84 ± 0.13
4 | UGGAAGCAAUAUUACGAGUG | -1.38 ± 0.09 | -0.586 ± 0.12
5 | GCCAAGCAAUAUUACGAGGU | -3.83 ± 0.18 | -2.74 ± 0.26
6 | UUAUAGCAAUAUUACGAGUG | -1.06 ± 0.11 | -1.32 ± 0.2
7 | CCGAAGCAAUAUUACGAGCA | -2.35 ± 0.22 | -2.9 ± 0.36
8 | CACGAGCAAUAUUACGAUUA | -3.34 ± 0.31 | -2.12 ± 0.25
9 | UCGCAGCAAUAUUACGGGUC |  | -2.14 ± 0.23
10 | CUUUAGCAAUAUUACGUACA | -2.89 ± 0.22 | 
11 | CCCGAGCAAUAUUACGAGCG | -3.77 ± 0.29 | -2.88 ± 0.27
12 | GGGUAGCAAUAUUACGGAUC | 0.0263 ± 0.12 | 0.637 ± 0.17
13 | UUUGAGCAAUAUUACGUUCC | -3.99 ± 0.39 | 
14 | AGCUAGCAAUAUUACGUCGU | -1.38 ± 0.1 | -1.4 ± 0.14
15 | CAGCAGCAAUAUUACGUGAC | -3.41 ± 0.24 | -1.86 ± 0.19
16 | UACUAGCAAUAUUACGCUAG | -3.86 ± 0.25 | -2.08 ± 0.21
17 | UUAAAGCAAUAUUACGUGGC | -3.08 ± 0.15 | -2.98 ± 0.3
18 | AGUGAGCAAUAUUACGCCAG |  | -2.12 ± 0.45
19 | CGAAAGCAAUAUUACGCAUA | -3.13 ± 0.25 | -2.72 ± 0.2
20 | CUAGAGCAAUAUUACGAGGC | -3.08 ± 0.26 | -1.02 ± 0.23

Row | Sequence | self-splicing fitness (ln) (30 °C) | self-splicing fitness (ln) (37 °C)
21 | CAUGAGCAAUAUUACGCCUA | -2.28 ± 0.24 | -1.75 ± 0.26
22 | AGAGAGCAAUAUUACGAAUC | -3.68 ± 0.47 | -2.06 ± 0.37
23 | GUAUAGCAAUAUUACGAAGA | -3.64 ± 0.47 | -0.936 ± 0.23
24 | UCUGAGCAAUAUUACGCAGU | -2.4 ± 0.35 | -1.08 ± 0.21
25 | CGUUAGCAAUAUUACGCGGA | -2.82 ± 0.47 | -1.31 ± 0.17
26 | CUCCAGCAAUAUUACGGUCG | -0.742 ± 0.054 | -0.679 ± 0.071
27 | UGACAGCAAUAUUACGCUAA | -1.22 ± 0.086 | -0.325 ± 0.093
28 | UUGAAGCAAUAUUACGUCAC | -3.27 ± 0.21 | -1.25 ± 0.2
29 | CAAGAGCAAUAUUACGUUAC | -2.55 ± 0.12 | -2.71 ± 0.23
30 | ACGAAGCAAUAUUACGUUAU | -3.54 ± 0.13 | -1.1 ± 0.1
31 | CCGGAGCAAUAUUACGAUGA | -2.7 ± 0.23 | -1.37 ± 0.23
32 | CAUAAGCAAUAUUACGGUGC | -3.51 ± 0.18 | -3.18 ± 0.24
33 | AACUAGCAAUAUUACGGUCG | -0.193 ± 0.062 | 0.193 ± 0.085
34 | CCUGAGCAAUAUUACGUACG | -2.08 ± 0.2 | -1.24 ± 0.22
35 | GUCAAGCAAUAUUACGCCGU | -2.32 ± 0.31 | -0.783 ± 0.27
36 | CCCUAGCAAUAUUACGCGUU | -3.65 ± 0.19 | -2.72 ± 0.17
37 | CAACAGCAAUAUUACGGAGG | -1.33 ± 0.048 | -0.382 ± 0.065
38 | CUCGAGCAAUAUUACGUAAA | -3.8 ± 0.34 | 
39 | ACAUAGCAAUAUUACGGAUC | -3.05 ± 0.15 | -1.21 ± 0.12
40 | UCUUAGCAAUAUUACGCAGG | -3.45 ± 0.43 | -1.75 ± 0.38
